We go through 15 molecules from patent US20110044996A1 (published 2011).

Residue numbers refer to the chain shown, from its start.

Test [1] deals with T1, recombinant human GM-CSF (Peprotech) (human, UniProt P04141 18-144). Kind of test: SPR (BIAcore); recombinant human GM-CSF coupled to CM5 chip, antibody injected at 66.7-4.17 nM. On the procedure:
A second experiment was performed to determine the kinetics with which these antibodies bind to human GM-CSF. A range of antibody concentration was prepared in HBS-EP from 66.7 nM to 4.17 nM with 2-fold serial dilution. Again direct binding was quantitated using recombinant GM-CSF coupled to a CM5 chip—an uncoated flow cell was used as a reference. The antibody at each concentration was injected for 2 minutes with a stabilisation time of 10 minutes and dissociation time of 15 minutes. The BIACore kinetic analysis wizard was run to determine each antibody's association (ka [1/Ms]), dissociation (kd[1/s]) and affinity (KD [nM]) to GM-CSF.
For orientation: SPR reads the build-up and loss of mass on a sensor chip optically.

Test [2] has as its target T1, recombinant human GM-CSF (Peprotech). Kind of test: SPR (BIAcore); recombinant human GM-CSF coated on CM5 chip, antibody injected at 66.7-4.17 nM. The protocol:
The binding kinetics of the 4K21 monoclonal antibody was determined using a Biacore and compared with the binding kinetics for a commercially available rat anti-human GM-CSF antibody from BD Biosciences (BD; Cat No. 554501) (see Table 1 below). Recombinant human GM-CSF was coated onto a CM5 chip to determine the binding kinetics of the 4K21 antibody. An uncoated flow cell was used as a reference. The antibody, prepared in HBS-EP at concentrations of 66.7 nM to 4.17 nM with 2-fold serial dilution, was injected for 2 minutes with a stabilisation time of 10 minutes and dissociation time of 15 minutes. The BIACore kinetic analysis wizard was run to determine each antibody's association (ka [1/Ms]), dissociation (kd[1/s]) and affinity (KD [nM]) to GM-CSF.

Test [3] has the same target. Nature of the test: BIAcore, recombinant human GM-CSF amine-coupled to a CM5 chip, antibody at 1 ug/ml injected for 3 min. On the procedure: The binding affinity of the humanized antibodies was determined by BIACore analysis. Recombinant GM-CSF (Peprotech) at 100 μg/ml was prepared in sodium acetate, pH5, and immobilised to a CM5 sensor chip by amine coupling. Approximately 1200RU bound to the chip. The first experiment was to determine the binding activity of 15 humanized antibodies. These antibodies were prepared in HBS-EP at 1 μg/ml, injected for 3 minutes and compared to murine 4K21 and a commercially available anti GM-CSF antibody (BD).

Test [4] has the same target. Kind of test: cell-based or functional assay.

T1 sequence (P04141 18-144 limits assumed): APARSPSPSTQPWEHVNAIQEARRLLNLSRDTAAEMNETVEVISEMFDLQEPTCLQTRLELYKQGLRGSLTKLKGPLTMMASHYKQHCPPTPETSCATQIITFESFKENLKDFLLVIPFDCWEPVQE

One may read the Kd as a measure of binding affinity in units of concentration. One may read the koff as a measure of how fast the partners let go of each other. For orientation: kon means a measure of how fast the partners come together. In the case of “commercially available rat anti-human GM-CSF antibody from BD Biosciences (Cat No. 554501)”, in test [1], the Ka is greater than 5.2e+09 M⁻¹, the Kd is less than 0.19 nM, the koff is less than 1e-05 s⁻¹ and the kon is 52000 M⁻¹ s⁻¹. In test [2], the Ka was greater than 5.2e+09 M⁻¹, the dissociation constant Kd is less than 0.19 nM, the off-rate constant (koff) is less than 1e-05 s⁻¹ and the on-rate constant (kon) turned out to be 52000 M⁻¹ s⁻¹.

B1: hGM4/2 (antibody, V domains shown)
VH: EVQLVESGGGLVQPGGSLRLSCAASGFAFSAYDMSWVRQAPGKGLEWVSYISSGGSSFYYPDTVKGRFTISRDNAKNSLYLQMNSLRAEDTAVYYCARHLGFDYWGQGTLVTVSS
VL: DVVMTQSPLSLPVTLGQPASISCRSSQSLVNSNGNTYLHWFQQRPGQSPRRLIYKVSNRFSGVPDRFSGSGSGTDFTLKISRVEAEDVGVYYCSQSTHVPPTFGGGTKVEIK
notes: Heavy h4/20 with human gamma 1 constant (hG1), light h4a with human kappa constant (hKa); also called h4K21-2
Turning to B1, in test [1], the Ka is 3.5e+09 M⁻¹, the equilibrium dissociation constant (Kd) came out at 0.29 nM, the koff was determined as 4.7e-05 s⁻¹ and the association rate constant (kon) is 160000 M⁻¹ s⁻¹.

B2: hGM4/5 (antibody, V domains shown)
VH: B1 VH with Q13K, P14S, R19T, V37I, R87K, A88D
VL: B1 VL
notes: Heavy h4/50 with human gamma 1 constant (hG1), light h4a with human kappa constant (hKa); also called h4K21-5
In the case of B2, in test [1], the Ka was found to be 7.6e+09 M⁻¹, the dissociation constant (Kd) worked out at 0.13 nM, the koff came out at 1.9e-05 s⁻¹ and the on-rate constant (kon) is 140000 M⁻¹ s⁻¹.

B3: hGM4/3 (antibody, V domains shown)
VH: B1 VH with A23S, S49A, Y80F, N84S, L110T
VL: B1 VL
notes: Heavy h4/30 with human gamma 1 constant (hG1), light h4a with human kappa constant (hKa); also called h4K21-3; 4K21-3
B3: in test [1], the Ka amounted to 7.1e+09 M⁻¹, the Kd came out at 0.14 nM, the koff came to 3e-05 s⁻¹ and the kon was 210000 M⁻¹ s⁻¹.

B4: hGM4/12 (antibody, V domains shown)
VH: B1 VH
VL: B1 VL with L15P, Q17E, F41Y, Q42L, R44K, R50Q, R51L
notes: Heavy h4/20 with human gamma 1 constant (hG1), light h4c with human kappa constant (hKa); also called h4K21-12
B4: the binding result in test [3] is “binds”.

B5: hGM4/13 (antibody, V domains shown)
VH: B1 VH with A23S, S49A, Y80F, N84S, L110T
VL: B1 VL with L15P, Q17E, F41Y, Q42L, R44K, R50Q, R51L
notes: Heavy h4/30 with human gamma 1 constant (hG1), light h4c with human kappa constant (hKa); also called h4K21-13
In the case of B5, the binding result in test [3] is reported as “binds”.

B6: murine monoclonal antibody 4K21-O11-E14 (antibody, V domains shown)
VH: EVQLVESGGGLVKSGGSLKLSCAASGFAFSAYDMSWVRQTPEKRLELVAYISSGGSSFYYPDTVKGRFTISRDNAKNTLYLQMSSLKSEDTAMYYCTRHLGFDYWGQGTTLTVSS
VL: DVVMTQTPLSLPVSLGDQASISCRSSQSLVNSNGNTYLHWFLQKPGQSPKLLIYKVSNRFSGVPDRFSGSGSGTDFTLKISRVEAEDLGVYFCSQSTHVPPTFGGGTKLEIK
notes: Murine hybridoma antibody (ECACC 07051601); also called 4K21-O11-E14 (mouse); mAb 4K21
As to B6, in test [1], the Ka is greater than 5.9e+09 M⁻¹, the Kd was less than 0.17 nM, the koff is less than 1e-05 s⁻¹ and the kon was found to be 59000 M⁻¹ s⁻¹. Also, in test [2], the Ka is greater than 5.9e+09 M⁻¹, the Kd is less than 0.17 nM, the koff was less than 1e-05 s⁻¹ and the kon amounted to 59000 M⁻¹ s⁻¹. Moreover, in test [4], the “EC50, TF-1 cell growth (3H-thymidine) with GM-CSF” value (shortened to “EC50, TF-1 cell growth”) came out at 0.311 nM.

B7: hGM4/11 (antibody, V domains shown)
VH: B6 VH with E1Q, V5Q, S14P, E42D, L47W, T97A, T110M, L111V
VL: B1 VL with L15P, Q17E, F41Y, Q42L, R44K, R50Q, R51L
On to B7, for which, in test [4], the “EC50, TF-1 cell growth” value is 5.13 nM.

B8: hGM4/14 (antibody, V domains shown)
VH: B1 VH with S17F, E46V, S78T, V93M, A97T, R98F, L110T
VL: B1 VL with L15P, Q17E, F41Y, Q42L, R44K, R50Q, R51L
notes: also called h4K21-14; humanised 4K21-14
For B8, in test [3], the binding result was “no binding (tested: 1 ug/ml)”.

B9: hGM4/15 (antibody, V domains shown)
VH: B1 VH with Q13K, P14S, R19T, V37I, R87K, A88D
VL: B1 VL with L15P, Q17E, F41Y, Q42L, R44K, R50Q, R51L
notes: Heavy h4/50 with human gamma 1 constant (hG1), light h4c with human kappa constant (hKa); also called h4K21-15
With B9, the binding result in test [3] is recorded as “binds”.

B10: hGM4/6 (antibody, V domains shown)
VH: B6 VH with E1Q, V5Q, S14P, E42D, L47W, T97A, T110M, L111V
VL: B1 VL with G105Q, V109L
notes: Heavy h4/10 with human gamma 1 constant (hG1), light h4b with human kappa constant (hKa); also called h4K21-6
Turning to B10, in test [1], the Ka was 1.2e+10 M⁻¹, the dissociation constant Kd was 0.081 nM, the off-rate constant (koff) came out at 1.6e-05 s⁻¹ and the kon amounted to 200000 M⁻¹ s⁻¹.

B11: hGM4/1 (antibody, V domains shown)
VH: B6 VH with E1Q, V5Q, S14P, E42D, L47W, T97A, T110M, L111V
VL: B1 VL
notes: Heavy h4/10 with human gamma 1 constant (hG1), light h4a with human kappa constant (hKa); also called h4K21-1; 4K21-1
For the molecule B11, in test [1], the Ka amounted to 7.7e+09 M⁻¹, the Kd was 0.13 nM, the koff was 3.8e-05 s⁻¹ and the kon was 290000 M⁻¹ s⁻¹.

B12: hGM4/21 (antibody, V domains shown)
VH: B6 VH with E1Q, V5Q, S14P, E42D, T97A, T110M, L111V
VL: B1 VL with L15P, Q17E, F41Y, Q42L, R44K, R50Q, R51L
For the molecule B12, the “EC50, TF-1 cell growth” value in test [4] worked out at 1.19 nM.

B13: hGM4/34 (antibody, V domains shown)
VH: B6 VH with E1Q, V5Q, S14P, E42D, T110M, L111V
VL: B1 VL with L15P, Q17E, F41Y, Q42L, R44K, R50Q, R51L
Take B13: the “EC50, TF-1 cell growth” value in test [4] was determined as 0.22 nM.

B14: hGM4/22 (antibody, V domains shown)
VH: B6 VH with E1Q, V5Q, S14P, E42D, L47W, T110M, L111V
VL: B1 VL with L15P, Q17E, F41Y, Q42L, R44K, R50Q, R51L
B14: the “EC50, TF-1 cell growth” value in test [4] amounted to 2.12 nM.
